Measured values: the supplement of paper PMC10126150
± gives the standard deviation of the averaged measurements.

system: ATP; assay: switch fluorescence ratio, 500 uM ATP over buffer (Cy3 cluster intensity, sum of 5 cycles each) (fold (ratio)); higher = stronger signal-on switching upon ATP binding; sequences stand for … in TCGTCGGCAGCGTCAGATGTGTATAAGAGACAGTTTTTTTTTTTTTTTTTTTTTTTTT…TC; conditions: aptamer strand: ATP DNA aptamer (quencher-CACCTGGGGGAGTATTGCGGAGGAAGG + anchor), 100 nM annealed; ATP concentration: 500 uM
Method in brief: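 Clusters carrying Cy3-labelled switching strands on a modified Illumina MiSeq flow-cell were annealed to 100 nM quencher-labelled ATP aptamer and imaged in selection buffer. They were imaged again after 15 min with 500 uM ATP at 22 °C, over five buffer/ATP cycles with NaOH stripping and re-annealing in between. For each cluster, the fluorescence ratio is the summed Cy3 intensity of the target cycles divided by that of the buffer cycles, averaged per switch-domain sequence. Clusters outside 100-1000 RFU were left out.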
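Further: ATP exposure 15 min at 22 °C before imaging.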

Row | Sequence | switch fluorescence ratio
1 | TATAACCAGG | 1.33 ± 0.086
2 | GATGATAAAA | 0.989 ± 0.033
3 | ACCTGGTGGG | 0.984 ± 0.028
4 | TGGGGGAATG | 0.992 ± 0.0027
5 | TTTTAGATGG | 1.2 ± 0.2
6 | ACGGGATGGG | 1.062 ± 0.01
7 | TCGAGCATCA | 1.143 ± 0.01
8 | TTCCAGAATT | 0.993 ± 0.051
9 | AAACATGGAG | 1 ± 0.019
10 | GGTGTGGGCG | 0.983 ± 0.079
11 | CGGTAGGTTT | 0.9898 ± 0.0057
12 | TTTAGTTTGT | 0.99 ± 0.036
13 | TTGAGCGGGG | 0.9876 ± 0.005
14 | AGCACGTATC | 1.09 ± 0.059
15 | ATTGCATGAG | 1.004 ± 0.0014
16 | CAAGTATCGG | 0.973 ± 0.027
17 | TTAGTTAGTT | 0.98 ± 0.016
18 | CCATATTTAG | 0.996 ± 0.028
19 | GGTTGGAATT | 1.01 ± 0.025
20 | CCTTATGGGA | 0.982 ± 0.026
21 | AAAATTAACG | 1.04 ± 0.028
22 | CGGGAGGGTG | 1.04 ± 0.038
23 | CAGGGACGGC | 1.02 ± 0.012
24 | TATTTTTATT | 1.01 ± 0.021
25 | TGCGGAAGGC | 1.11 ± 0.013
26 | CTTGGGATCA | 0.971 ± 0.011

Row | Sequence | switch fluorescence ratio
27 | CATATCCAGG | 1.34 ± 0.017
28 | GTGGCAGGCA | 0.984 ± 0.033
29 | GGGCTCATGG | 1.042 ± 0.0061
30 | GTTTTTGTGT | 0.987 ± 0.025
31 | AATTTAGTGC | 0.998 ± 0.07
32 | ATAGTCGCCC | 1.009 ± 0.0031
33 | TTGTAGGGGA | 1.04 ± 0.06
34 | TAAGACATTT | 1.03 ± 0.04
35 | CAATGTGAAA | 1.008 ± 0.0093
36 | TTTTAAAGGT | 1.01 ± 0.024
37 | TTATGCTGTT | 1 ± 0.011
38 | CCAAACGAGT | 0.9661 ± 0.0041
39 | TCTTACGCCA | 1.06 ± 0.016
40 | CTGAGTTGGG | 0.9793 ± 0.0042
41 | TCTTGTTTTT | 0.977 ± 0.022
42 | CGGTTTAGCG | 0.98 ± 0.029
43 | GGGAAGATTA | 0.966 ± 0.031
44 | TGAAATATGT | 0.987 ± 0.04
45 | TTTTAATTTC | 0.955 ± 0.14
46 | TTATTGGGTC | 1.002 ± 0.01
47 | CGGGTGGAGC | 0.952 ± 0.011
48 | CAATTTGAAG | 0.978 ± 0.051
49 | TCGGACAGGC | 1.03 ± 0.035
50 | CAATGATTGA | 1.02 ± 0.018
51 | GGGGGTATGC | 1.05 ± 0.15
52 | GCCAGTCTTT | 1 ± 0.012

Row | Sequence | switch fluorescence ratio
53 | CGACTGAGGT | 1.03 ± 0.029
54 | GGGGAGGTTG | 0.991 ± 0.037
55 | TTCATGGACA | 0.99 ± 0.014
56 | ACGCCCACGT | 1.22 ± 0.038
57 | TTAATTCCGT | 1.02 ± 0.032
58 | TCGGCTGCGT | 1.03 ± 0.018
59 | GCATAAAGGA | 0.9684 ± 0.0075
60 | GAAGGGCTGT | 0.993 ± 0.029
61 | CAAAGGGCAA | 1.11 ± 0.038
62 | TTTTAGAAGG | 0.9797 ± 0.0062
63 | TCCAAAATTT | 0.976 ± 0.013
64 | AGGGTTATAG | 0.982 ± 0.025
65 | GAATGGGATG | 1.002 ± 0.0023
66 | GGTAGTTCCT | 1.02 ± 0.013
67 | TGAGTTTTGG | 1.02 ± 0.015
68 | CTGAGGGAGA | 1.04 ± 0.03
69 | TTTTGGACGC | 1.26 ± 0.43
70 | GGGGCGTGCA | 1.03 ± 0.034
71 | CTATATAGGT | 1.014 ± 0.0069
72 | CGGGGTAGTT | 1.01 ± 0.004
73 | ATCGGTGGGA | 0.992 ± 0.0031
74 | CACGACTTTT | 1.05 ± 0.04
75 | GCTAGGGGAA | 0.985 ± 0.031
76 | TGGGGCAGCA | 1.01 ± 0.042
77 | CGGCAGGCTC | 1.19 ± 0.053
